Test results from patent US6645504B1, “Bystander suppression of type I diabetes by oral administration of glucagon” (AutoImmune Inc., priority 1987, dated 2003).

Columns and labels:
EAE [1] = test: In vivo bystander suppression of EAE (MBP/CFA plus secondary antigen); design: species or system Lewis rats; conditions: MBP fed before MBP/CFA immunization; FIG. 6B
Experimental: Immunization Of Animals. Animals were immunized with 25 μg of MBP in the footpad, emulsified in an equal volume of CFA containing 4 mg/ml of Mycobacterium tuberculosis (Difco Labs, Detroit, Mich.) in order to induce a substantial EAE disease state. For in vivo bystander suppression experiments, 50-300 μg of the secondary antigens OVA, BSA or KLH were injected subcutaneously in the same footpad in 100 μl PBS 8 hours after primary immunization with MBP CFA.
Clinical Evaluation. Animals were evaluated in a blinded fashion every day for evidence of EAE in order to correlate the clinical manifestations of Bystander Suppression with the in vitro assays described below. Clinical severity of EAE was scored as follows: 0, no disease; 1, limp tail; 2, hind limb paralysis; 3, hind limb paraplegia, incontinence; 4, tetraplegia; 5, death. Mean maximal clinical severity was calculated as previously described for each experimental group (7). Statistical analysis was performed using a one-tailed student's t test and a chi square analysis for comparing incidence between groups.
Induction Of Oral Tolerance. Animals were fed 1 mg MBP, OVA, BSA or KLH dissolved in 1 ml PBS or PBS alone, by gastric intubation using an 18-gauge stainless steel animal feeding needle (Thomas Scientific, Swedesboro, N.J.). Animals were fed five times (total dose of 5 mg), at intervals of 2-3 days with the last feeding 2 days before immunization.

EAE [2] = test: EAE after MBP/CFA immunization with oral tolerization and in vivo anti-TGF-β antiserum; design: species or system Lewis rats; conditions: orally tolerized animals treated 5 times with 50 μl control serum; score 0-5
EAE [3] = test: I.V. tolerization with MBP and MBP peptides in EAE induced with whole guinea pig MBP; format: in vivo, SJL/J mice; conditions: days 8 and 9 post immunization, FIG. 16
Text: FIG. 16 is a bar graph showing the effect of intravenous tolerization with MBP and disease inducing and non-inducing fragments thereof on induced EAE expression in SJL/J mice.
Finally, the suppression of EAE by I.V. tolerization with MBP and MBP peptides prior to disease expression (on days 8 and 9 post immunization) was examined.

TGF-β = test: Measurement of TGF-β activity in serum-free culture supernatants of spleen cells; format: cell-based, Lewis rats
Experimental: Measurement Of TGF-β Activity In Serum-Free Culture Supernatants. Serum free culture supernatants were collected as previously described (Kehri, et al. J. Exp. Med. 163: 1037-1050, 1986; Wahl, et al. J. […] Thereafter cells were washed three times and resuspended in serum-free medium for the remainder of the 72 hour culture, collected, then frozen until assayed. Determination of TGF-β content and isoform type in supernatants was performed using a mink lung epithelial cell line (American Type Culture Collection, Bethesda, Md. #CCL-64) according to Danielpour et al. (supra), and confirmed by a Sandwich Enzyme Linked Immunosorbent Assay (SELISA) assay as previously described (Danielpour et al. Growth Factors 2: 61-71,1989). The percent active TGF-β was determined by assay without prior acid activation of the samples.

insulitis = test: Suppression of insulitis in NOD mice by oral administration; format: in vivo; conditions: fed orally
Experimental: NOD mice (Taconic Labs) were fed one mg of glucagon, or one mg of porcine insulin (both commercially purchased) or equal molar amounts of insulin A-chain, B-chain and B-chain peptides described below (all insulin fragments having been synthesized) twice weekly for five weeks and sacrificed at ten weeks of age.
Control animals were fed a non-pancreatic (i.e., unrelated) peptide, GAP. Insulitis was measured as a semiquantitative insulitis score according to the method described in Zhang, Z. J., PNAS(USA), 88:10252-10256, 1991.
The insulin B-chain peptides corresponded to amino acid residues 1-12 (B1-12), 10-22 (B10-22), 11-30 (B11-30) and 23-30 (B23-30). All animals were fed 10 times over three weeks.

OVA line = test: Transwell culture suppression of OVA T cell line; format: cell-based, Lewis rats
Text: Transwell Cultures. A dual chamber transwell culture system (Costar, Cambridge, Mass.), which is 24.5 mm in diameter and consists of two compartments separated by a semi-permeable polycarbonate membrane, with a pore size of 0.4 μm, was used. The two chambers are 1 mm apart, allowing cells to be coin-cubated in close proximity without direct cell-to-cell contact. To measure in vitro suppression of proliferative responses in transwell cultures, 5×10^4 MBP- or OVA-specific line cells, raised and maintained as previously described (Ben-Nun, A. et al., Eur. J. Immunol. 11:195, 1981), were cultured with 10^6 irradiated (2,500 rad) thymocytes, in 600 μl of proliferation media in the lower well. Spleen cells from orally tolerized rats or controls (fed BSA) were added to the upper well (5×10^5 cells in 200 μl). Spleen cells were removed 7-14 days after the last feeding, and a single cell suspension was prepared by pressing the spleens through a stainless steel mesh. MBP and OVA (50 μg/ml) were added in a volume of 20 μl. […] In some experiments, modulator cells were added in the lower well together with responder cells, and in these instances modulator cells were irradiated (1,250 rad) immediately before being placed in culture. Proliferation media consisted of RPMI 1640 (Gibco Laboratories, Grand Island, N.Y.) supplemented with […] 2-mercaptoethanol, 1% sodium pyruvate, 1% penicillin and streptomycin, 1% glutamine, 1% HEPES buffer, 1% nonessential amino acids, and 1% autologous serum. Each transwell was performed in quadruplicate. The transwells were incubated at 37° C. in a humidified 6% CO2 and 94% air atmosphere for 72 hours. After 54 hours of culture, each lower well was pulsed with 4 μCi of [^3H]thymidine and at 72 hours split and reseeded to three wells in a round-bottomed 96-well plate (Costar) for harvesting onto fiberglass filters and counting using standard liquid scintillation techniques. Percent suppression =100×(1−Δ A cpm responders cultured with modulators/Δ cpm of responders).

[4] = spleen cells of MBP-fed animals stimulated with concanavalin-A
[5] = MBP-fed modulators + MBP in upper well
[6] = MBP-fed modulators in upper well without MBP

B1: MBP: Guinea pig myelin basic protein purified from brain tissue (protein, UniProt P25188 1-167, looked up)
Myelin basic protein: ASQKRPSQRHGSKYLATASTMDHARHGFLPRHRDTGILDSIGRFFGSDRAAPKRGSGKDSHHAARTTHYGSLPQKSQRSQDENPVVHFFKNIVTPRTPPPSQGKGRGLSLSRFSWGAEGQKPGFGYGGRADYKSKGFKGAHDAQGTLSKIFKLGGRDSRSGSPMARR
EAE [1]
  disease severity: 1.1±0.1
EAE [2]
  maximal disease severity: 1.0±0.2
EAE [3]
  suppression of EAE induced with whole guinea pig MBP: effective in suppressing EAE
TGF-β; [4]
  active TGF-β: No active TGF-β was observed
  latent TGF-β: 2.1 ± 0.45 ng/mL
TGF-β; spleen cells of fed animals stimulated in vitro with the fed antigen
  TGF-β in the active form: 68±9%
TGF-β; spleen cells of fed animals stimulated in vitro with the fed antigen, serum-free
  amount of TGF-β: 6.8 ± 1.7 ng/mL
insulitis
  suppression of insulitis (in words): No suppression was observed
insulitis; amount (mg) per Table 5, sacrificed at ten weeks of age
  Insulitis Score: 2.14
OVA line; [5]
  Percent Suppression: 51%
  Δ cpm: 30,974 ± 3,450 cpm
OVA line; [6]
  Percent Suppression: −5%
  Δ cpm: 65,868 ± 3,989 cpm
